Results reported in US20220347267A1, “METHODS TO IMPROVE PATIENT RESPONSE TO IMMUNE CHECKPOINT INHIBITORS AND FUNCTIONAL TESTS TO PREDICT RESPONSE” (Biomarker Strategies, LLC, priority 2019, published 2022).

System: SKMES1 cells
Experiment: Western blot of secreted and intact PDL1 in media and lysate
Type: cell-based, human
Settings: 10 ng/mL IFNg for 24 h, concentrated media and lysate, antibody clone E1J2J
Procedure: Different forms of PDL1 can be expressed at baseline as well as after modulation, and the abundance of each form will impact response to therapy. The two major forms are membrane bound and soluble (secreted or intracellular compartments). The relative ratios of the forms, and their cellular locations, can be changed by a modulator and will require different strategies for optimal ICI therapy. As way of example, the cell line SKMES1 was treated with vehicle or 10 ng/mL IFNg for 24 h. After treatment, media was collected and concentrated using an Amicon ultra 0.5 mL centrifugal filter with a 10 kDa cutoff. The retentate, containing proteins >10 kDa, was recovered in a clean tube at 14000 rpm for 5 min. Simultaneously, lysates of the same cells were made. PDL1 was then detected using 10% Tris-Glycine SDS gels and PVDF membranes. The western blot was carried out using 5% non-fat dry milk in TBST for 1h, followed by incubation with primary antibody against PDL1 (clone E1J2J; raised to the extracellular portion of PDL1) in 2% BSA for overnight, then anti-rabbit HRP secondary antibody before using a chemiluminescent reagent (Bio-Rad). […] Thus, by using westerns where the intact and secreted forms of PDL1 are first resolved by MW and different types of sample/resource material (media vs lysate or blood/plasma vs tumor), the response to therapy can be predicted. […]

B1: IFNγ: human IFNγ, modulator (10 ng/ml; Sigma Aldrich) (protein, UniProt P01579 24-161, looked up)
Interferon gamma: QDPYVKEAENLKKYFNAGHSDVADNGTLFLGILKNWKEESDRKIMQSQIVSFYFKLFKNFKDDQSIQKSVETIKEDMNVKFFNSNKKKRDDFEKLTNYSVTDLNVQRKAIHELIQVMAELSPAAKTGKRKRSQMLFRG
expression of secreted and intact PDL1: detected the expression of secreted and intact PDL1
